According to the nanobody polyreactivity screen of Harvey et al. (2022):

Test: yeast display, Sf9 membrane polyspecificity reagent, FACS + sequencing; frameworks hold sequencing errors
Summary of the method: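 After 36–48 hours of galactose induction, yeast (Saccharomyces cerevisiae BJ5465) displaying a synthetic nanobody library were stained at 4 °C for 1 hour with 10% biotinylated, detergent-solubilized Sf9 membrane reagent. Streptavidin microbeads enriched the stained cells before FACS sorting into low and high (top ~1%) gates on anti-HA and streptavidin fluorescence. Each clone's polyreactivity label reflects its gate of origin.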

Sequence	polyreactivity (PSR sort gate)
QVQLVESGVGLVQAGGSLRLSCAASGFIFPTNTMGWYRQAPGKEREFVARITRSGTNTYYADSVKGRFTISRDNAKNTVYLQMNSLKPEDTAVYYCATRYYHFNYWGQATQVTVSS	high polyreactivity
QVQLVESGVGLVQAGGSLRLSCAASGFIFYYYAMGWYRQAPGKERELVAAISTDGGSTYYADSVKGRFTISRDNAKNTVYLQMNSLKPEDTAVYYCNAPYYGWGYWPLEYIRYEYWGQGTQVTVST	low polyreactivity
QVQLVESGVGLVQAGGSLRLSCAASGFLFKYNAMGWYRQAPAKERELVAAISWSGSRTYYADSVKGRFTISRDNAKNTVYLQMNSLKPEDTAVYYCNAVSWRTSRYDYWGQGTQVTVSS	high polyreactivity
QVQLVESGVGLVQAGGSLRLSCAASGFTFPYYAMGWYIQAPGKERELVAAISSGGRTNYADSVKGRFTISRDNAKNTVYLQMNSLKPEDTAVYDCATRSYVFAWEFNYWGQVTQVTVSS	high polyreactivity
QVQLVESGVGLVQAGGSLRLSCAASGFTFQYYAMGWYRQAPGKERELVAAITRGDSTNYADSVKGRFTISRDNAKNTVYLQMNSLKPEDTAVYYCAAGSAPSYWGGWYYERDYWGQGTQVTVSS	low polyreactivity
QVQLVESGVGLVQAGGSLRLSCAASGFTLGRNAMGWYRQAPGKERELVASISGRGGSSYYADSVKGRFTISRDNAKNSVYLQMNSLKPEDTAVYYCAARGVSGKYYYWGQGTQVTVSS	high polyreactivity
QVQLVESGVGLVQAGGSLRLSCAASGGIFFYYAMGWSRQAPGKERELVAAISYSGGSTYYADSVKGRFTISRDNAKHTVYLQMNSVKPDDTAVNYCAAVPDYYEYSPYDYWGQGTQVTVSS	low polyreactivity
QVQLVESGVGLVQAGGSLRLSCAASGGTFVTYAMGWFSQAPGKERELVAAISATDGRTYNADSVKGRFTISRDNAKNTVYLQMNSLKPADTAVYYCAAVGPYTQSRGKYSNLFYWGQGTQVTVSS	high polyreactivity
QVQLVESGVGLVQAGGSLRLSCAASGIIFKNYTRGWDRPAPWKEWELVAAISWRGGRTYYADSVKGRFTISRDNAKNTVYLQMNSLKPEDTAVYYCAKELYVSYRGGPWVDYWGQGTQVTVSS	high polyreactivity
QVQLVESGVGLVQAGGSLRLSCAASGIIFSSYAMGWYRQAPGKERELVAAITWNGGRTYYADSVKGRFTISRDNAKNSVYLQMNSLKPEDTAVYYCAALQGRSSARQDSYGYWGQGTQVTVSS	high polyreactivity
QVQLVESGVGLVQAGGSLRLSCAASGIIFTSNTMGWYRPAPGKEREFVASINWNGSSTYADSVKGRFTISRDNAKNTVYLQMNSLKPEDTAVYYCNADYKRNSVQFSLYDYWGQGTQVTVSS	low polyreactivity
QVQLVESGVGLVQAGGSLRLSCAASGIIFVTYTMAWYRQAHGKEREFVAAITRRGSRTYYADSVKGRFTISRDNAKNTVYLQMNSPKPEDTAVYYCNAVPRWSYVDEDSWGQGTQVTVSS	high polyreactivity
QVQLVESGVGLVQAGGSLRLSCAASGIIFYPNAMGWYRQAPGKERELVAAISWRSGSTYYADSVKGRFTISRDNAKKTVYLQMNSLKPEDTAVYYCNADFWYSYGYDYWGQGTQVTVSS	low polyreactivity
QVQLVESGVGLVQAGGSLRLSCAASGITFYGYAMGWYRQAPGKDRELVAAINWGGTGTYYADSVKGRFTISRDNAKNTVYFQMNSLKPEDTAVYYCNKAGDPIADPTAGKRQFDYWGQGTQVTVSS	low polyreactivity
QVQLVESGVGLVQAGGSLRLSCAASGITSRYYAMGCYRQAPGKERELVAAISGNGGRTYYADSVKGRFTISRDIAKNSVYFQMNSMKPEDTAVYYCAARAHKTRHNYWGQGTQVTVSS	high polyreactivity
QVQLVESGVGLVQAGGSLRLSCAASGLIFYRYAMGWNRQAPGKERELVAAISWSGGTTYYADSVKGRFTISRDNAKNTVYLQMNSLKPEDTAVYYCAATRLRTEYYWGQGTQVTVSS	high polyreactivity
QVQLVESGVGLVQAGGSLRLSCAASGRIFHLYAMGWYRQAPGKERELVAAITFSGGSTYYADSVKGRFTISRDNAMNTVYLQMNSLKPEDTAVYYFAKRSFYWFSSRLPFKYDYWGQGTQVTVSS	low polyreactivity
QVQLVESGVGLVQAGGSLRLSCAASGRIFPGNVMGWYIQAPGKERELVAAISRGGGSTYYADSVKGRFTISRDIAKNTVYAQMNSLKPEDTAVYYCNVLRYQSRFRYDYWGLGTQVTVSS	high polyreactivity
QVQLVESGVGLVQAGGSLRLSCAASGRIFSKYAMGWYRQAPGKERELVAAISANGGGSTYYADSVKGRFTISRDNAKNTFYLQMNSLKPEDSAVYYCAALAYSTTRGRLDYWGQGTQVTVSS	high polyreactivity
QVQLVESGVGLVQAGGSLRLSCAASGRIISRYAMGWYRQAPGKERELDAAISRRGGSTYYADSVKGRFTISRDNAKNTVYLQMNSLKPEDTAVYYCNADTGNRGYDYWGQGTQVTVSS	high polyreactivity
QVQLVESGVGLVQAGGSLRLSCAASGRLFQYYAMGWYRQAPGKERELVASISGTGGSTYYADSVKGRFTISRDNAKNTVYLQMNSLKPEDTAVYYCAVRVKLQYWREYNYWGQGTQVTVSS	high polyreactivity

Sequence	polyreactivity (PSR sort gate)
QVQLVESGVGLVQAGGSLRLSCAASGRTFDLYAMGWYRQAPGKERELVAAITKGGGSTYYADSVKGRFTISRDNAKNTVYLQMNSLKPEDTAVYYCAARKYKRIYRISSGIGYYWGQGTQVTVSS	high polyreactivity
QVQLVESGVGLVQAGGSLRLSCAASGRTFWYYGMGWYRQAPGKERELVAAISRSGGRTYYADSVKARFTISRDNAKNTVYLQMNSLKPEDTAVYYCGASYRRTFDYWGQGTQVTVSS	high polyreactivity
QVQLVESGVGLVQAGGSLRLSCAASGRTIDHYAMGWYRQAPGKERELVAAISTTGGSTYYADSVKGRFTISRDNAKNTVYLQMNSLKPEDTAVYYCAARGLRTGGYWGQCTQVTVSS	high polyreactivity
QVQLVESGVGLVQAGGSLRLSCAASGRTIKANAMGWYRQAPGKERELVAAISRRGGRTYYADSVKGRFTISRDNAKNTVYLQMNSLKPEDTAVYYCAVRWYSYRQRYNYWGQGTQVTVSS	high polyreactivity
QVQLVESGVGLVQAGGSLRLSCAASGSIFASYAMGWYRQAPGKERELVAAISRSGTSTRYADSVKGRFTISRDNAKNTVYLQMNSLKPEDTAVYYCAARWYVFFRKYDYWGQGTQVTVSS	high polyreactivity
QVQLVESGVGLVQAGGSLRLSCAASGSIFGYYVMGWYRQAPGKERELVAAISGSDSSTYYADSVKGRFTISRDNAKNTVYLQMNRLKPEDTAVYYCNADQRYYPVEFDYWGQGTQVTVSS	low polyreactivity
QVQLVESGVGLVQAGGSLRLSCAASGSIFLRNDMAWYRQAPGKERELVAGISSVGSTYYADSVKGRFTISRDNAKNTVYLQMNSLKPEDTAVYYCAAERWGNPTDYQFWRPYDYWGQGTQVTVSS	low polyreactivity
QVQLVESGVGLVQAGGSLRLSCAASGSIFQGYAMGWYRQAPGKERELVAGITSSGGRTRYADSLKGRFTISRDNAKNTVYLQMNSLKPEDTAVYSCAADYVRHIGYNYWGQGNQVTVSS	high polyreactivity
QVQLVESGVGLVQAGGSLRLSCAASGSIFVPNTMRWYRQAPGKERELVAAITGGGSTDYADSVKGRFTISRDNAKNTVYLQMNSLKPEDTAVYYCNKDYWRDVAQDVLDGYDYWGQGTQVTVSS	low polyreactivity
QVQLVESGVGLVQAGGSLRLSCAASGSIFYENAMGWYRQEPGKEREFVATIDLIGDRTFYADSVKVRFTISRDNAKNTVYLQMNSLKPEDTAVYYCAAERVGVFFRYDYWGQGTQVTVSS	low polyreactivity
QVQLVESGVGLVQAGGSLRLSCAASGSIFYRNAMVWYRQAHGKERELVAAISGTGGSTYYADSLKGRFTISRDNAKNTVYLQMNSLKPEDTAVYYCASGVTYRHDYWGQGTQVTVSS	high polyreactivity
QVQLVESGVGLVQAGGSLRLSCAASGSTFEVHSMGWYRQAPGKERELVATITRSGGSTYYADSVKGRFTISRDNGKNTVYLQMNSLKPEDTAVYYCNALWELKWGQGTQVTVSS	low polyreactivity
QVQLVESGVGLVQAGGSLRLSCAASGSTFKFYSMGWYRQAPGTERELVASITSSSGPTYFADSVKGRFTNSLDNAKNTVYLQMNSLKQEDTAVYYCAKRPIRYYHLLRGNYWGHGTQVTVSS	low polyreactivity
QVQLVESGVGLVQAGGSLRLSCAPSGSTLGYYVMGWYRQAPGKERELVAAITGGGSTDYADSVNGRFTISRDNAKNTVYLQMNSLKPEDTAVYYCAAERTRTGQLFWWGPIYDYWGLGTQVTVSS	low polyreactivity
QVQLVESGVGLVQAGGSLRLSCASSGITFPSYTMGWYRQAPGKERELVATIRNGGSTYYADSVKGRFTISRDNAKNTVYLQMNSLKPEDTAVYYCAAVPLWDYKFFYYLLYDYWGQGTQVTVSS	low polyreactivity
QVQLVESGVGLVQAGGSLRLSSAASGSIFLSYDMGWYRQAPGKERELVAAITQSGGSTYYADSVKGRFTISRDNAKNTVYLQMNSLKPEDTAVYYCAADYGYFPQETYPTYGYYYWGQGTQVTVSS	low polyreactivity
QVQLVESGVGLVQAGGSLRLTCAASGSIFGRKAMGWYRKATGKERELVAAIRTRGGSTYYADSVKGRFTISRDNAKNTLYLQMNSLKPEDTAVFFCAAPGGGKVVDYWGQGTHVTVSS	low polyreactivity
QVQLVESGVGLVQAGGSLRVSCAASGLTFAYYDMGWYRQAPGKERELVAAITWNGGSTYYADSVKGRFTISRDNAKNTVYLQMNSLKPEDTAVYYCAASWGYGYSGRFDYWGQGTQVSVSS	high polyreactivity
QVQLVESGVGLVQAGGSLSLSCAASGFTFHDYAMGWYSQAPGKERELVAAIDWSGGRTYYADSVKGRFTISRDNAKNTVYLQMNSLKPEDTAVYYCAAVRYSRLYWYRLDYGGQGTQVTVSS	low polyreactivity
QVQLVESGVGLVQAGGSLSLSCAASGIIFYWYAMGWYRQAPGKEREMVATITSTGGSTNYADSVKGRFTISRDNAKNSVYVQMNSLKPEYTAVYYCSTSGPQYYSRNFDYWGQGTQVTVSS	low polyreactivity
